In US20210130452A1 (Merck KGaA, published 2021):
Like-named read-outs stand apart in the source and are kept apart here.

T1: mouse IL-17A (mouse, UniProt Q62386 26-158)
T1 sequence (looked up): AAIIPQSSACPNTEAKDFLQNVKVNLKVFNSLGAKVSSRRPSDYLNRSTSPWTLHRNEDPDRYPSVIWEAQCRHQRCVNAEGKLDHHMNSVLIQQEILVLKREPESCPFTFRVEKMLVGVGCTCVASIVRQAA

T2: marmoset IL-17A (marmoset, IL-17A is a disulfide-linked homodimer. One chain is given.)
T2 chain: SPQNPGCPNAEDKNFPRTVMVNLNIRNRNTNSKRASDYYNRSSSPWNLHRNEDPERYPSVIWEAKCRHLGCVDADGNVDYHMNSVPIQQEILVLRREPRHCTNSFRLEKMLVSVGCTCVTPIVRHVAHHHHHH

T3: rat IL-17A (rat, UniProt Q61453 18-150, limits assumed)
T3 sequence (looked up): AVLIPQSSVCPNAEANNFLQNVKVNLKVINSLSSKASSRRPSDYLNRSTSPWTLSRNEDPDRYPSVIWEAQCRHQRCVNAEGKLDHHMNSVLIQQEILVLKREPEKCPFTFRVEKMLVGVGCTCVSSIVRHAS

T4: mouse IL-17F (mouse, UniProt Q7TNI7 29-161)
T4 sequence (looked up): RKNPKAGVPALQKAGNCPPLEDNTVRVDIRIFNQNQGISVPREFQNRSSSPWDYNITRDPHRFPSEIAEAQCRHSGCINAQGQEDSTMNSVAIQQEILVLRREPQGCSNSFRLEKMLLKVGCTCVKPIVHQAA

T5: rat IL-17F (rat, UniProt Q5BJ95 29-161)
T5 sequence (looked up): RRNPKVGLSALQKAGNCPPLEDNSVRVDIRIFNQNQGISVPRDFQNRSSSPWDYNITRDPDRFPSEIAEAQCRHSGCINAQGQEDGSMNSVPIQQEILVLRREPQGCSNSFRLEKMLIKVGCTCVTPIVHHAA

T6: human IL-17F (human, UniProt Q96PD4 31-163)
T6 construct: made in Hek293 cells (GenBank AF384857); also called hIL-17F; hIL17F
T6 sequence: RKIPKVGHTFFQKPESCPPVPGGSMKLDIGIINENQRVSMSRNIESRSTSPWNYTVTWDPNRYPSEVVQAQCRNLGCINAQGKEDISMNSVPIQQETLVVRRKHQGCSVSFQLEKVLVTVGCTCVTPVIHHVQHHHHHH


Tests used:
[1] = target: T7, human IL-17A (human, UniProt Q16552 24-155); assay: SPR, IL-17A-Nanobody complex over captured IL-17RA
T7 construct: secreted form (GenBank U32659) expressed in Hek293 with C-terminal 6-His; also called hIL-17A; IL-17A-6HIS
T7 sequence (Q16552 other isoform, or with tags, fused parts or gaps): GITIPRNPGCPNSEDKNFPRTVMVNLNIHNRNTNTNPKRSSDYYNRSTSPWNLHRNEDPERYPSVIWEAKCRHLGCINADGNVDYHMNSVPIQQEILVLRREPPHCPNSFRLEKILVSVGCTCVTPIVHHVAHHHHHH
From the text: The receptor (IL-17RA or IL-17RC) was captured via its human Fc-tail by an anti-human IgG-Fc antibody coated on the chip.

[2] = target: T1, mouse IL-17A; assay: ELISA, coated IL-17A
Method: (§1) Binding of a selected panel of anti-IL-17 Nanobodies to IL-17 of other species was assessed using a binding ELISA. […] HRP (horseradish peroxidase) conjugated anti-myc (Serotec, MCA 2200P) was used for detection using esTMB as substrate.

[3] = target: T7, human IL-17A; assay: ELISA, coated IL-17A
Method: as §1

[4] = target: T2, marmoset IL-17A; assay: ELISA, coated IL-17A
Method: as §1

[5] = target: guinea pig IL-17A (guinea pig); assay: ELISA, coated IL-17A
Method: as §1

[6] = target: T3, rat IL-17A; assay: ELISA, coated IL-17A
Method: as §1

[7] = target: T4, mouse IL-17F; assay: ELISA, coated IL-17F;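 note: binding ELISA on coated antigen from various species, with bound Nanobodies revealed by an HRP-linked anti-myc antibody and esTMB substrate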
Method: as §1

[8] = target: T5, rat IL-17F; assay: ELISA, coated IL-17F;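 note: binding ELISA on coated antigen from various species, with bound Nanobodies revealed by an HRP-linked anti-myc antibody and esTMB substrate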
Method: as §1

[9] = target: T6, human IL-17F; assay: AlphaScreen hIL-17F-IL-17RC; vs IL17MS13E02
[10] = target: T6, human IL-17F; assay: SPR (Biacore) off-rate
[11] = target: T8, human IL-17A/F heterodimer (human, UniProt Q16552 24-155; Q96PD4 31-163, limits assumed); assay: SPR (Biacore) off-rate
T8 construct: bought, made in E. coli (R&D Systems 5194-IL/CF); also called hIL-17A/F; hIL17A/F
T8 sequence (Q16552 24-155 limits assumed, chain 1 of 2, one chain of several): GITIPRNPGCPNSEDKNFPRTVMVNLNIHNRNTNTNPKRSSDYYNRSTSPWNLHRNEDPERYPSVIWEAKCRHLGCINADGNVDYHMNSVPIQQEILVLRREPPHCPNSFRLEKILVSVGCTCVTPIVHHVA

[12] = target: T9, human IL-17A (human, UniProt Q16552 24-155); assay: SPR (Biacore) off-rate
T9 construct: secreted form made in Hek293 cells (GenBank U32659); also called hIL-17A; hIL17A
T9 sequence (Q16552 other isoform, or with tags, fused parts or gaps): as the sequence (Q16552 other isoform, or with tags, fused parts or gaps) above

[13] = target: T6, human IL-17F; assay: SPR (Biacore) off-rate; remark: listed apart in the source
[14] = target: T8, human IL-17A/F heterodimer; assay: SPR (Biacore) off-rate; remark: listed apart in the source
[15] = target: T9, human IL-17A; assay: SPR (Biacore) off-rate; remark: listed apart in the source

Binder | % Biacore binding (IL-17A-NB)-IL-17RA [1] [%] | OD [2] [OD] | OD [3] [OD] | OD [4] [OD] | OD [5] [OD] | OD [6] [OD] | OD [8] [OD] | koff [13] [s⁻¹] | koff [14] [s⁻¹] | koff [15] [s⁻¹] | other results
03C07 (VHH, Class 2) VHH: EVQLVESGGGLVQAGGSLRLSCAASGFTFDDYAIGWFRQAPGKEREAVSCFSSSDGSIYYADSVKGRFTISSDNAKNTVYLQMNSLKPEDTAVYYCAGGGGSYYYTQLNYCYDMDYWGKGTQVTVSS | -0.08 | -0.004 | 1.7 | 1.7 | 0.004 | 0.003 | 0.0015 |  |  |  | OD [7]: 0.0005 OD
13B05 (VHH, Class 4) VHH: EVQLVESGGRLVQAGGSLRLSCAASGRTFTSYPMGWFRQAPGKEREFVAAISMSGDDTAYTDFVRGRFTISRDDARNTVYLHMTSLKPEDTAVYYCAARTSYDGTYDYIDDYSYWGQGTQVTVSS | -0.89 | -0.006 | 1.82 | 1.91 | 0.001 | 0.003 | 0.0095 |  |  |  | OD [7]: 0.0205 OD
IL17MS3038 (VHH, variant of IL17MS13E02; Kabat numbering) VHH: EVQLVESGGGLVQAGGSLRLSCAASGRTYDAVGWLRQAPGKEREFVAAISGSGDDTYYADSVKGRFTISKDNAGITMYLQMNSLKPEDTAVYYCATRRGLYYVWDSNDYENWGQGTQVTVSS |  |  |  |  |  |  |  |  |  |  | IC50 fold difference vs WT [9]: 3.2 fold; koff [10]: 0.0101 s⁻¹; koff [11]: 6.82e-05 s⁻¹; koff [12]: 0.000225 s⁻¹
IL17MS3039 (VHH, variant of IL17MS13E02; Kabat numbering) VHH: EVQLVESGGGLVQAGGSLRLSCAASGRTYDAMGWLRQAPGKEREFVAAISGSGDDTYYADSVKGRFTISKDNAGITVYLQMNSLKPEDTAVYYCATRRGLYYVWDSNDYENWGQGTQVTVSS |  |  |  |  |  |  |  |  |  |  | IC50 fold difference vs WT [9]: 1.25 fold; koff [10]: 0.00515 s⁻¹; koff [11]: 4.03e-05 s⁻¹; koff [12]: 0.00021 s⁻¹
02A08 (VHH, Class 2) VHH: EVQLVESGGGVVQPGGSLRLSCADSERSFSFNAMGWFRQAPGKEREFVAAISATGDDTYYADSVKGRFAISRDTARNTVYLQMNSLKPEDTAVYYCGARVNFDGTVSYTNDYAYWGQGTQVTVSS | 0.46 | -0.001 | 1.95 | 1.95 | 0.002 | 0.002 | 0.0035 |  |  |  | 
IL17MS3043 (VHH, variant of IL17MS13B03; Kabat numbering) VHH: EVQLVESGGGSVQPGGSLRLSCAASGRANSINWFGWFRQTPGKEREFVAGIRWSDAYTEYANSVKGRFTISRDNSKNTVYLQMDSLRPEDTAVYYCVLDLSTVRYWGQGTLVTVSS |  |  |  |  |  |  |  | 0.00811 | 0.000585 | 0.000276 | 
IL17MS3044 (VHH, variant of IL17MS13B03; Kabat numbering) VHH: EVQLVESGGGLVQPGDSLRLSCAASGRANSINWFGWFRQTPGKEREFVAGIRWSDAYTEYANSVKGRFTISRDNSKNTVDLQMDSLRPEDTAVYYCVLDLSTVRYWGQGTLVTVSS |  |  |  |  |  |  |  | 0.00776 | 0.000253 | 0.000212 | 
IL17MS3049 (VHH, variant of IL17MS13B03; Kabat numbering) VHH: EVQLVESGGGSVQPGDSLRLSCAASGRANSINWFGWFRQAPGKEREFVAGIRWSDAYTEYANSVKGRFTISRDNSKNTVYLQMDSLRPEDTAVYYCVLDLSTVRYWGQGTLVTVSS |  |  |  |  |  |  |  | 0.00757 | 0.000248 | 0.00015 | 
IL17MS3046 (VHH, variant of IL17MS13B03; Kabat numbering) VHH: EVQLVESGGGSVQPGDSLRLSCAASGRANSINWFGWFRQTPGKEREFVAGIRWSDAYTEYAASVKGRFTISRDNSKNTVDLQMDSLRPEDTAVYYCVLDLSTVRYWGQGTLVTVSS |  |  |  |  |  |  |  | 0.00848 | 0.000515 | 0.000281 | 
IL17MS3048 (VHH, variant of IL17MS13B03; Kabat numbering) VHH: EVQLVESGGGSVQPGDSLRLSCAASGRANSINWFGWFRQTPGKEREFVAGIRWSDAYTEYANSVKGRFTISRDNSKNTVDLQMNSLRPEDTAVYYCVLDLSTVRYWGQGTLVTVSS |  |  |  |  |  |  |  | 0.00874 | 0.000665 | 0.000295 | 
IL17MS3050 (VHH, variant of IL17MS13B03; Kabat numbering) VHH: EVQLVESGGGSVQPGGSLRLSCAASGRANSINWFGWFRQTPGKEREFVAGIRWSDAYTEYANSVKGRFTISRDNSKNTVDLQMDSLRPEDTAVYYCVLDLSTVRYWGQGTLVTVSS |  |  |  |  |  |  |  | 0.00855 | 0.000575 | 0.000267 | 
IL17MS3045 (VHH, variant of IL17MS13B03; Kabat numbering) VHH: EVQLVESGGGSVQPGDSLRLSCAASGRANSINWFGWFRQAPGKEREFVAGIRWSDAYTEYANSVKGRFTISRDNSKNTVDLQMDSLRPEDTAVYYCVLDLSTVRYWGQGTLVTVSS |  |  |  |  |  |  |  | 0.00794 | 0.000616 | 0.00027 | 
13E05 (VHH, Class 4) VHH: EVQLVESGGGKVQAGDSLTLSCVASGGTFSNYAAWFRQAPGKDRRELVVSIFRTGSITYTADSVKGRFTASRVNTKNTVYLQMNSLKPEDTAVYYCASAYNPGVGYDYWGQGTQVTVSS | 0.54 | 0.004 | 1.96 | 1.89 | 0.006 | 0.003 | 0.0025 |  |  |  | OD [7]: 0.0005 OD
11C08 (VHH, Class 4) VHH: EVQLVESGGGLVQAGGSLRLSCAASGVIFRLNAMGWYRAAPGKQRELVAIIVNGGSTNYADSVKGRFTISRDSAKNAVYLQMNSLKPEDTAVYYCYYNIPGDVYWGQGTQVTVSS | 3.25 | -0.005 | 1.71 | 0.671 | 0.002 | 0.002 | 0.0005 |  |  |  | OD [7]: -0.0025 OD
